Test: yeast display, Sf9 membrane polyspecificity reagent, FACS + sequencing; frameworks hold sequencing errors
Summary of the method: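 Nanobodies came from a synthetic yeast display library in Saccharomyces cerevisiae BJ5465, induced with galactose for 36–48 hours and stained for 1 hour at 4 °C with 10% biotinylated, detergent-solubilized Sf9 membrane reagent. Cells were enriched on streptavidin microbeads and then FACS-sorted, with low and high (top ~1%) gates set on anti-HA fluorescence for expression and streptavidin fluorescence for reagent binding. Each polyreactivity label reflects the gate a clone came from. Genes were amplified by colony PCR, sequenced by MiSeq 2 × 250 and filtered by CDR length.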

## QVQLVESGGGLVQAGGSLRLSCAASGSTFWGYAMGWYRQAPGKERELVATINQSAGSTYYADSVKGRFTISRDYAKNTVYLQMNSLKPEDTAVYYCAAEARVQFSYDYWGQGTQVTVSS
  polyreactivity (PSR sort gate): low polyreactivity

## QVQLVESGGGLVQAGGSLRLSCAASGSTFWINAMGWYRPAPGKEREFVAAIRWNGGSTNYADSVKGRFTHSRDNAKNTVYLPMNSLKPEDTAVYYCAADGYIGWRHIYEYWGQGTQVTVSS
  polyreactivity (PSR sort gate): low polyreactivity

## QVQLVESGGGLVQAGGSLRLSCAASGSTFWKYAMGWYRQAPGKEREFVAAITRSGGNTYYADSVKGRFTISRDNAKNTVYLQMNSLKPEDTALYYCAIVYKLITSYRGFGYWGQGTQVTVSS
  polyreactivity (PSR sort gate): high polyreactivity

## QVQLVESGGGLVQAGGSLRLSCAASGSTFWKYVMGWYRPAPGKERELVAAITSRGGSTYADSVKGRFTISRDNAKNTVYLLMNSLKPEDTAVYYCAATKFWYYGYDYWGQGTQVTVSS
  polyreactivity (PSR sort gate): low polyreactivity

## QVQLVESGGGLVQAGGSLRLSCAASGSTFWLNAMGWYRQAPGKERELVAAITGLGGSTYYADSVKGRFTISRDTAKNTVYLQMNSLKPEDTAVYYCAAGAYRRNKSDYYYWGQGTEVTVSS
  polyreactivity (PSR sort gate): low polyreactivity

## QVQLVESGGGLVQAGGSLRLSCAASGSTFWLYAMGWYRPAPGKERELVASISSRGGSTYYADSVKGRFTISRDYAKNTVYLQMNSLKPEDTAVYYCAAKDIRYDDDYWGQGTQVTVSS
  polyreactivity (PSR sort gate): low polyreactivity

## QVQLVESGGGLVQAGGSLRLSCAASGSTFWNAMGWYRPGPGKERELVAAIRLSGGSTYYADSVKGRFTISRDNAKNTVYLQMNSLKPEDTAVYYCNADVTFGYWEYDYWGQGTQVTVSS
  polyreactivity (PSR sort gate): low polyreactivity

## QVQLVESGGGLVQAGGSLRLSCAASGSTFWPNAMGWYRQAPGKERELVAGITTSSGSTFYADSVKGRFTISRDNAKNTVYLQMNSLKPADTAVYYCNARVRRRRYKYDYWGQGTQVTVSS
  polyreactivity (PSR sort gate): high polyreactivity

## QVQLVESGGGLVQAGGSLRLSCAASGSTFWPYAMGWFRQAPGTERELVAAITWSGGRTYYADSVKGRFTLSRDNAKNTVYLQMNSLKPEDTAVYYCAAYYRQGIAPNGFDYWGQGTQVTVSS
  polyreactivity (PSR sort gate): high polyreactivity

## QVQLVESGGGLVQAGGSLRLSCAASGSTFWPYAMGWYRPAPGKERELVAAITNSGGSTYYADSVKGRFTISRDNAKYTVYLQMNSLKPEDTAVYYCAVRGVIYSYTPVNTYDYWGQGTQVTVSS
  polyreactivity (PSR sort gate): low polyreactivity

## QVQLVESGGGLVQAGGSLRLSCAASGSTFWQYAMGWYRQAPGKERELVAAISYSGGSTYYADSVKGRFTISRDNAKNTVYLQMNSLKPEDTAVYYCAKEYNVGFYLVFNRFDYWGQGTQVTVSS
  polyreactivity (PSR sort gate): low polyreactivity

## QVQLVESGGGLVQAGGSLRLSCAASGSTFWRYAMGWYRQAPGKERELVAGITWNGGSTYYADSVKGRFTISRDNAKNTVYLQMNSLKPEDTAVYYCAARRTWGYIYRLGYGMDYWGQGTQVTVSS
  polyreactivity (PSR sort gate): high polyreactivity

## QVQLVESGGGLVQAGGSLRLSCAASGSTFWSNAMGWYRQAPGKERELVAAISISDGNTYYADSVKVRFTISRDNAKNTVYLQMNSLKPEDTAVYYCATVGSEDGDPGFDYWGQGTQVTVSS
  polyreactivity (PSR sort gate): low polyreactivity

## QVQLVESGGGLVQAGGSLRLSCAASGSTFWSYAMGWYRQAPGKEREFVAAISSSDDSTYYADSVKGRFTISRDNAKNTVYLQMNSLKPEDTAVYYCATSWYIYPYDYWGQGTQVTVSS
  polyreactivity (PSR sort gate): low polyreactivity

## QVQLVESGGGLVQAGGSLRLSCAASGSTFWSYAMGWYTQAPGKERELVAVITGSDGRTFYADSVKGRFTISRDNAKNTVYLQMNSLKPEDTAVYYCAADAVFRATRYDRSTSEDDYWGQGTQVTVSS
  polyreactivity (PSR sort gate): low polyreactivity

## QVQLVESGGGLVQAGGSLRLSCAASGSTFWVNTMGWYRQAPGKERELVAAISSNGGSTYYADSVKGRFTISRDNAKNTVYLQMNSLKPEDTAVYYCATRQSWSDYYLNVDYDYRGQGTQVTVSS
  polyreactivity (PSR sort gate): low polyreactivity

## QVQLVESGGGLVQAGGSLRLSCAASGSTFWVYTMGWYRQAPGKERALVAAINYSDGSTYYADSVKGRFTISRENAKNTVYLQMNSLKPEDTAVYYCAAGSDPTGRRYEYWGQGTQVTVSS
  polyreactivity (PSR sort gate): low polyreactivity

— the nanobody polyreactivity screen of Harvey et al. (2022)
